The record followed here is the nanobody polyreactivity screen of Harvey et al. (2022).

The series is described as follows: yeast display, Sf9 membrane polyspecificity reagent, FACS + sequencing; frameworks hold sequencing errors. In a few lines:
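Galactose-induced (36–48 hours) yeast carrying a synthetic nanobody display library were exposed to 10% biotinylated, detergent-solubilized Sf9 membrane reagent at 4 °C for 1 hour. FACS followed streptavidin microbead enrichment, using low and high (top ~1%) gates for expression (anti-HA) and reagent binding (streptavidin). Colony PCR, MiSeq 2 × 250 sequencing and CDR-length filtering followed. Labels for polyreactivity reflect the gate of origin.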
Consider “QVQLVESGGGLVQAGGSLRLSCAASGRTFRRYAMGWYRQAPGKEREFVAAIRYSGGITYYADSVKGRFTISRDNAKNTVYLQMNSLKPEDTAVYYCAAYGWGNRWYSRFDYWGQGTQVTVSS”, for which the “polyreactivity (PSR sort gate)” value is recorded as “high polyreactivity”.
As to “QVQLVESGGGLVQAGGSLRLSCAASGRTFRRYAMGWYRQAPGKERELVAAISRTGSTNNYADSVKGRFTISRDNAKNTVYLQMNSLIPEDTAVYYCKRQHNLGYGYDYWGQGTQVTVSS”, the “polyreactivity (PSR sort gate)” value is “high polyreactivity”.
Under “QVQLVESGGGLVQAGGSLRLSCAASGRTFRRYAMGWYRQAPGKERELVAAITNRGASTYYADSVKGRFTISRDNAKNTVYLQMNSLKPEDTAVYFCNTDPVSGLVWKGTEYDYWGQGTQVTVSS” stands “low polyreactivity”.
The entry for “QVQLVESGGGLVQAGGSLRLSCAASGRTFRRYAMGWYRQAPGKERELVAAITSGGDTYYADSVKGRFTISRDNAKNTVYLQMNSLKPEDTAVYYCNAASVTRRTGIRAVDFDYWGQGTQVTVSS” is “high polyreactivity”; for “QVQLVESGGGLVQAGGSLRLSCAASGRTFRRYAMGWYRQAPGKERELVASISTSGGSTYADSVKGRFTISRDNAKNTVYLQMNSLKPEDTAVYYCAVRSPRYVRNGDYWGQGTQVTVSS” it is “high polyreactivity”; for “QVQLVESGGGLVQAGGSLRLSCAASGRTFRSDNAMGWYRQAPGKERELVAAISQGGGTYYADSVKGRFTISRDNAKNTVYLQMNSLKPEDTAVSYCARDAYYADPSLWYYTYDYWGQCTQVTVSS” it is “low polyreactivity”.
Under “QVQLVESGGGLVQAGGSLRLSCAASGRTFRSYAMGRYRQAPGKVRELVAAISYGGGSTYYADSVKGRFTISRDNAKNTVYLQMNSLKPEDTAVYYCAAAGNKRGGYDYWGQGTQVTVSS” stands “high polyreactivity”; under “QVQLVESGGGLVQAGGSLRLSCAASGRTFRTNDMGWYRQAPGKERELVAAISRGGGSTYYADSVKGRFTISRDNAKNTVYLQMNSLKPEDTAVYYCNALRNGIAFGAMDYWGQGTQVTVSS”, “high polyreactivity”; under “QVQLVESGGGLVQAGGSLRLSCAASGRTFRTYAMGWYRQAPGKERELVAAISRTGRTNYADSVKGRFTISRDNAKNTVYLQMNSLKPEDTAVYYCAADRVGWSGYRGDYWGQGTQVTVSS”, “high polyreactivity”.
Consider “QVQLVESGGGLVQAGGSLRLSCAASGRTFRTYTMGWYRQAPGKEREFVAAINKSGGTTNYADSVKGRFTISRDNAKNTVYLQMNSLKPEDTAVYYCAKRGRSTYGYDYWGQGTQVTVSS”, for which the “polyreactivity (PSR sort gate)” value is on record as “high polyreactivity”.
The entry for “QVQLVESGGGLVQAGGSLRLSCAASGRTFRTYTMGWYRQAPGKERELVAAISRGGSTNYADSVKGRFTISRDNAKNTVYLQMNSLKPEYTAVYYCNAKASFWSPYDDWGQGTQVTVSS” is “high polyreactivity”.
The entry for “QVQLVESGGGLVQAGGSLRLSCAASGRTFRTYTMGWYRQAPGKERELVATISWSGGSTNYADSVKGRFTISRDNAKNTVYLQMNSLKPEDTAVYYCNAYVSPRYRGSRYYYWGQGTQVTVSS” is “high polyreactivity”.
The entry for “QVQLVESGGGLVQAGGSLRLSCAASGRTFRVYAMGWYRQAPGKERELVAAITGSGDSTYYADSVKGRFTISRDNAKYTVYLQMNSLKPEDTAVYYCNAVYRSTFDYWGQGTQVTVSS” is “high polyreactivity”; for “QVQLVESGGGLVQAGGSLRLSCAASGRTFRVYAMGWYRQAPGKERELVAAITRGGSTYYADSVKGRFTISRDNAKNTVYLQMNSLKPEDTAVYYCAADVLRTQPIGWYSHSPLEYWGQGTQVTVSS” it is “high polyreactivity”.
“QVQLVESGGGLVQAGGSLRLSCAASGRTFRWYAMGWYRQAPGKERELVASITWSGGSTYYADSVKGRFTISRDNAKNTVYLQMNSLKPEDTAVYYCNRVLVVSMYEGNYWGQGTQVTVSS”: the “polyreactivity (PSR sort gate)” value is on record as “high polyreactivity”.
Under “QVQLVESGGGLVQAGGSLRLSCAASGRTFRYNAMGWYRQAPGKERELVAAITYSGGTTYADSVKGRFTISRDNAKNTVYLQMNSLKPEDTAGYYCAARGYVWNIGRYYWGQGTQVTVSS” stands “high polyreactivity”.
The entry for “QVQLVESGGGLVQAGGSLRLSCAASGRTFRYNAMGWYRQAPGKERELVAGIRWSGDRTYYADSVKGRFTISRDNAKNTVYLQMNSLKPEDTAVYYCNKVYHPGYGVRATYDYWGQGTQVTVSS” is “high polyreactivity”; for “QVQLVESGGGLVQAGGSLRLSCAASGRTFRYNAMGWYRQAPGKERELVAGITYYGGSTSYADSVKGRFTISRDNAKNTVYLQMNSLKPEDTEVYYCNVVYNYYGRFGSWGQGTQVTVSS” it is “high polyreactivity”; for “QVQLVESGGGLVQAGGSLRLSCAASGRTFRYNAMGWYRQAPGKERELVARITVIGDSTYYADSVKGRFTISRDNAKNTVYLQMNSLKPEDTAVYYCAAVSRRVSPYLSARDYWGQGTQVTVSS” it is “high polyreactivity”.
The entry for “QVQLVESGGGLVQAGGSLRLSCAASGRTFRYNAMGWYRQAPGKERELVASITYRGGSTYYADSVKGRFTISRDNAKNTVYLQMNSLKPEDTGVYYCATSVYSRPRKPRYYYWGQGTQVTVSS” is “high polyreactivity”; for “QVQLVESGGGLVQAGGSLRLSCAASGRTFRYNDMGWYRQAPGKERELVAAITYTADRTYYADSVKGRFTISRDNAKNTVYLQMNSLKPEDTAVYYCNAAYGRRVTFRPYYWGQGTQVTVSS” it is “high polyreactivity”; for “QVQLVESGGGLVQAGGSLRLSCAASGRTFRYNTMGWYRQAPGKERELVASISWGGGSTYYADSVKGRFTISRDNAKNTVYLQMNSLKPEDTAVYYCAARRWGQFRFEYWGQGTQVTVSS” it is “high polyreactivity”.
In the case of “QVQLVESGGGLVQAGGSLRLSCAASGRTFRYNTMGWYRQAPRKERELFAAISRGGRTYYADSVKGRFTISRDNAKNTVYLQMNSLKPEVTAVDYCAAPAAGDEYDYWGQGTQVTVSS”, the “polyreactivity (PSR sort gate)” value was “high polyreactivity”.
Take “QVQLVESGGGLVQAGGSLRLSCAASGRTFRYYAKGWYRQAPGKERELVAAITVTVTSTFYADSVKGRFTISRDNAKNTVYLQMNSLKPEDTAVYYCAKVDRQSPGQYYYWGQGTQVTVSS”: the “polyreactivity (PSR sort gate)” value is on record as “low polyreactivity”.
Under “QVQLVESGGGLVQAGGSLRLSCAASGRTFRYYAMGWYRPATGKERELVADISSTGRTYYADSVKGRFTISRDNAKNTVYLQMNSLKPEDTAVYYCNADYFFEFDYWGQGTQVTVSS” stands “low polyreactivity”; under “QVQLVESGGGLVQAGGSLRLSCAASGRTFRYYAMGWYRQAPGKERELVAAIDTSSGSTYYADSVKGRFTISRDNAKNTVYLQMNSLKPEDTAVYYCNATWWIPLIYDYWGQGTQVNVSS”, “low polyreactivity”.
The entry for “QVQLVESGGGLVQAGGSLRLSCAASGRTFRYYAMGWYRQAPGKERELVAAINRGGSTYYADSVKGRFTISRDNAKNTVYLQMNSLKPEDTAVYYCNFDKYRIVGFHSPYDYWGQGSQVTVSS” is “high polyreactivity”.
As to “QVQLVESGGGLVQAGGSLRLSCAASGRTFRYYAMGWYRQAPGKERELVAAISRRGGSTFYADSVKGRFTISRDNAKNTVYLQMNSLKPEDTAVYYCAAADRYASDTGGYWGQGTQVTVSS”, the “polyreactivity (PSR sort gate)” value is on record as “high polyreactivity”.
Under “QVQLVESGGGLVQAGGSLRLSCAASGRTFRYYAMGWYRQAPGKERELVAAISWSGVRTYYADSVKGRFTISRDNSKNTVYLQMNSLKPEDTAVYYCAKGGYWGQGTQVTVSS” stands “high polyreactivity”; under “QVQLVESGGGLVQAGGSLRLSCAASGRTFRYYAMGWYRQAPGKERELVAAITSGGSTYYADSVKGRFTISRDNAKNTVYLQMNSLKPEDTAVYYCNAFFATGVDYWGQGTQVTVSS”, “high polyreactivity”; under “QVQLVESGGGLVQAGGSLRLSCAASGRTFRYYAMGWYRQAPGKERELVADISWSGGRTSYADSVKGRFTISRDNAKNTVYLQMNSLKPEDTAVYYCAKVLYYPSHVYWGQGTQVTVSS”, “high polyreactivity”.
Under “QVQLVESGGGLVQAGGSLRLSCAASGRTFRYYAMGWYRQAPGKERELVASISSSGSTNYADSVKGRFTISRDNAKNTVYLQMNSLKPEDTAVYYCAAESRYPFIYEYWGQGTQVTVSS” stands “low polyreactivity”.
The entry for “QVQLVESGGGLVQAGGSLRLSCAASGRTFRYYAMGWYRQAPGKERELVATISSGGSTNYADSVKGRFTISRDNAKNTVYLQMNSLKPEDTAVYYCARYSYRGTNVRYDYWGQGTQVTVSS” is “high polyreactivity”.
For the sequence “QVQLVESGGGLVQAGGSLRLSCAASGRTFRYYDMGRYRQAPGKERELVAAISSSGDRTYYADSVKGRFTISRDNAKNTVYLQMNSLKPEDTAVYYCAADRGARGDYWGQGTQVTVSS”, the “polyreactivity (PSR sort gate)” value is given as “high polyreactivity”.
For the sequence “QVQLVESGGGLVQAGGSLRLSCAASGRTFRYYDMGWYRQAPGKEREFVAAITWRGGSTYYADSVKGRFTISRDYAKNTVYLQMNSLTPEDTAVYYCATDSLRLYGGKRDLYYWGQGTQVTVSS”, the “polyreactivity (PSR sort gate)” value is on record as “low polyreactivity”.
Under “QVQLVESGGGLVQAGGSLRLSCAASGRTFRYYTMGWYRQAPGKEREFVAAISSTGGTYYADSVKGRFTISRDNAKNTVYFQMNSLKPEDTAVYYCAAYRWGILSAYYYAWYGYWGQGTQVTVSS” stands “low polyreactivity”.
Under “QVQLVESGGGLVQAGGSLRLSCAASGRTFSAYAMGWNRQAPGKEREMVAAISSTGRTKYADSVKGRFTISRDNAKNSVYLQMNSLKPEDTAVYYCAARGYYVSPYTYGYWGQGTQVTVSS” stands “high polyreactivity”.
Take “QVQLVESGGGLVQAGGSLRLSCAASGRTFSAYAMGWYRQAPGKERELVAAISRSGGSTYYADSVKGRFTISRDNAKNTVYLQMNSLKPEDTAVYYCAAKGGSGLYYWGQGTQVTVSS”: the “polyreactivity (PSR sort gate)” value was “high polyreactivity”.
For the sequence “QVQLVESGGGLVQAGGSLRLSCAASGRTFSAYAMGWYRQAPGKERELVARITSVDSTNYADSVKRRFTISRDNAKNSVYLQINSLKPEDTAVYYCNATFGYPFVDYDDYWGQGTQVTVSS”, the “polyreactivity (PSR sort gate)” value is “low polyreactivity”.
The entry for “QVQLVESGGGLVQAGGSLRLSCAASGRTFSDYAMGWYRQAPGKERELVAAITSSSGTTYYADSVKGRFTISRDNAKNTVYFQMNSLKPEDTAVYYCAAGHPYSLSERYNYWGQGTQVTVSS” is “low polyreactivity”.
The entry for “QVQLVESGGGLVQAGGSLRLSCAASGRTFSFYAMGWYRQAPGNERELVASMSRSGASTYYADSVKGRFTISRDNAKNTVYLQMNSLKPEDTAVYYCAAEWGRRYIYYYWGQGTQVTVSS” is “high polyreactivity”.
